# According to paper PMC5600342 (Biochemistry and Biophysics Reports, 2016):
# Ends that are not written are not given here.
# T1: Mouse nucleoplasmin M.NPM2 (full murine NPM2) (mouse, UniProt Q80W85 1-207)
# T1 sequence: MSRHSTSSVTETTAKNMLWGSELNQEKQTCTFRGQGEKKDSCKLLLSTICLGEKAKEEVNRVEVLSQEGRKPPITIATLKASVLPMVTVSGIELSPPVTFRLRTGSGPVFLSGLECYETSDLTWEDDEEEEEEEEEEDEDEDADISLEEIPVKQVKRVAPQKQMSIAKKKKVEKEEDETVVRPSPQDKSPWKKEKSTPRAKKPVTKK
# Tests used:
# [1] = molecular target: T1, Mouse nucleoplasmin M.NPM2 (full murine …); assay: cross-linking
# [2] = molecular target: mouse P1+P2 (stoichiometric mixture containing equal amounts of protamines P1 and P2) (mouse); assay: native gel or EMSA
binding result [1],stoichiometry N [2],Binder
binds,,Mouse protamine P1 (natural protein) MARYRC(pyridylethyl)C(pyridylethyl)RSKSRSRC(pyridylethyl)RRRRRRC(pyridylethyl)RRRRRRC(pyridylethyl)C(pyridylethyl)RRRRRRC(pyridylethyl)C(pyridylethyl)RRRRSYTIRC(pyridylethyl)KKY
,3 P1+P2:M.NPM2,Mouse nucleoplasmin M.NPM2 (full murine NPM2) (natural protein) MSRHSTSSVTETTAKNMLWGSELNQEKQTCTFRGQGEKKDSCKLLLSTICLGEKAKEEVNRVEVLSQEGRKPPITIATLKASVLPMVTVSGIELSPPVTFRLRTGSGPVFLSGLECYETSDLTWEDDEEEEEEEEEEDEDEDADISLEEIPVKQVKRVAPQKQMSIAKKKKVEKEEDETVVRPSPQDKSPWKKEKSTPRAKKPVTKK
